From EP4509523A1 (Deutsches Primatenzentrum GmbH (DPZ), dated 2025)

Molecular target: T1, D2-KIR3DL2-IgG1-Fc (human, UniProt P43630 220-316, limits assumed)
T1 construct: domain: D2; also called D2 domain of KIR3DL2 as IgG1-Fc protein
Test: flow cytometry on HEK-293 cells expressing FLAG-KIR3DX1rep, anti-IgG-Fc detection (Fig. 4C)

T1 sequence (P43630 other isoform, or with tags, fused parts or gaps limits assumed): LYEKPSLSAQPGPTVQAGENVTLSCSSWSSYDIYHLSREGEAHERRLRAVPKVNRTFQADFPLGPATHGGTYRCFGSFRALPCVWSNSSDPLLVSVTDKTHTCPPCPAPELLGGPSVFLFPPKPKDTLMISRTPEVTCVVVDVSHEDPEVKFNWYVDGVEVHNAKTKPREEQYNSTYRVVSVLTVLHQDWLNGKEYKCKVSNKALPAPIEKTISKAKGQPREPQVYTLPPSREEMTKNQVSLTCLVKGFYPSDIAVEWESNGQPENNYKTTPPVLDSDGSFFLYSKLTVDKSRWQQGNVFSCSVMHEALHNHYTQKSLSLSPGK

- binding result: no binding
B1: FLAG-KIR3DX1rep (receptor)
chain: QKICPHAGAQDKFSLSAWPSPVVPLGGRVTLSCHSHLRFVIWTIFQTTGTRSHELHTGLSNNITISPVTPEHAGTYRCVGIYKHASKWSAESNSLKIIVTGLFTKPSISAHPSSLVHAGARVSLRCHSELAFDEFILYKEGHIQHSQQLDQGMEAGIHYVEAVFSMGPVTPAHAGAYRCCGCFSHSRYEWSAPSDPLDIVITGKYKKPSLSTQVDPMMRLGEKLTLFCSSEISFDQYHLFRHGVAHGQWLSGGQRHREAFQANFSVGRATPVPGGTYRCYGSFNDSPYEWSAPSDPLQLYTTGNTKSTPLSFTESTPESDTPRPQGQSSNLHMLTGLSVAIISIGVCLSAFIGFWCYIKYHTTMANTEPTEGQRTDEEEPAAEETQEIIYAQLNHQALSQTGFPPASQCPHYLSEDPSIYITVHQAQAEARAAPSLWHKGHPR
notes: also called FLAG-tagged full-length KIR3DX1-repaired; full-length KIR3DX1 in its repaired form as cell surface receptor
